The source of these data is US20230242666A1.

The assay addresses chondroitin sulfate proteoglycan 4 (CSPG4) (human) (UniProt Q6UVK1). Description: cell-based or functional assay.
Sequence of UniProt Q6UVK1 (Q6UVK1 30-2322): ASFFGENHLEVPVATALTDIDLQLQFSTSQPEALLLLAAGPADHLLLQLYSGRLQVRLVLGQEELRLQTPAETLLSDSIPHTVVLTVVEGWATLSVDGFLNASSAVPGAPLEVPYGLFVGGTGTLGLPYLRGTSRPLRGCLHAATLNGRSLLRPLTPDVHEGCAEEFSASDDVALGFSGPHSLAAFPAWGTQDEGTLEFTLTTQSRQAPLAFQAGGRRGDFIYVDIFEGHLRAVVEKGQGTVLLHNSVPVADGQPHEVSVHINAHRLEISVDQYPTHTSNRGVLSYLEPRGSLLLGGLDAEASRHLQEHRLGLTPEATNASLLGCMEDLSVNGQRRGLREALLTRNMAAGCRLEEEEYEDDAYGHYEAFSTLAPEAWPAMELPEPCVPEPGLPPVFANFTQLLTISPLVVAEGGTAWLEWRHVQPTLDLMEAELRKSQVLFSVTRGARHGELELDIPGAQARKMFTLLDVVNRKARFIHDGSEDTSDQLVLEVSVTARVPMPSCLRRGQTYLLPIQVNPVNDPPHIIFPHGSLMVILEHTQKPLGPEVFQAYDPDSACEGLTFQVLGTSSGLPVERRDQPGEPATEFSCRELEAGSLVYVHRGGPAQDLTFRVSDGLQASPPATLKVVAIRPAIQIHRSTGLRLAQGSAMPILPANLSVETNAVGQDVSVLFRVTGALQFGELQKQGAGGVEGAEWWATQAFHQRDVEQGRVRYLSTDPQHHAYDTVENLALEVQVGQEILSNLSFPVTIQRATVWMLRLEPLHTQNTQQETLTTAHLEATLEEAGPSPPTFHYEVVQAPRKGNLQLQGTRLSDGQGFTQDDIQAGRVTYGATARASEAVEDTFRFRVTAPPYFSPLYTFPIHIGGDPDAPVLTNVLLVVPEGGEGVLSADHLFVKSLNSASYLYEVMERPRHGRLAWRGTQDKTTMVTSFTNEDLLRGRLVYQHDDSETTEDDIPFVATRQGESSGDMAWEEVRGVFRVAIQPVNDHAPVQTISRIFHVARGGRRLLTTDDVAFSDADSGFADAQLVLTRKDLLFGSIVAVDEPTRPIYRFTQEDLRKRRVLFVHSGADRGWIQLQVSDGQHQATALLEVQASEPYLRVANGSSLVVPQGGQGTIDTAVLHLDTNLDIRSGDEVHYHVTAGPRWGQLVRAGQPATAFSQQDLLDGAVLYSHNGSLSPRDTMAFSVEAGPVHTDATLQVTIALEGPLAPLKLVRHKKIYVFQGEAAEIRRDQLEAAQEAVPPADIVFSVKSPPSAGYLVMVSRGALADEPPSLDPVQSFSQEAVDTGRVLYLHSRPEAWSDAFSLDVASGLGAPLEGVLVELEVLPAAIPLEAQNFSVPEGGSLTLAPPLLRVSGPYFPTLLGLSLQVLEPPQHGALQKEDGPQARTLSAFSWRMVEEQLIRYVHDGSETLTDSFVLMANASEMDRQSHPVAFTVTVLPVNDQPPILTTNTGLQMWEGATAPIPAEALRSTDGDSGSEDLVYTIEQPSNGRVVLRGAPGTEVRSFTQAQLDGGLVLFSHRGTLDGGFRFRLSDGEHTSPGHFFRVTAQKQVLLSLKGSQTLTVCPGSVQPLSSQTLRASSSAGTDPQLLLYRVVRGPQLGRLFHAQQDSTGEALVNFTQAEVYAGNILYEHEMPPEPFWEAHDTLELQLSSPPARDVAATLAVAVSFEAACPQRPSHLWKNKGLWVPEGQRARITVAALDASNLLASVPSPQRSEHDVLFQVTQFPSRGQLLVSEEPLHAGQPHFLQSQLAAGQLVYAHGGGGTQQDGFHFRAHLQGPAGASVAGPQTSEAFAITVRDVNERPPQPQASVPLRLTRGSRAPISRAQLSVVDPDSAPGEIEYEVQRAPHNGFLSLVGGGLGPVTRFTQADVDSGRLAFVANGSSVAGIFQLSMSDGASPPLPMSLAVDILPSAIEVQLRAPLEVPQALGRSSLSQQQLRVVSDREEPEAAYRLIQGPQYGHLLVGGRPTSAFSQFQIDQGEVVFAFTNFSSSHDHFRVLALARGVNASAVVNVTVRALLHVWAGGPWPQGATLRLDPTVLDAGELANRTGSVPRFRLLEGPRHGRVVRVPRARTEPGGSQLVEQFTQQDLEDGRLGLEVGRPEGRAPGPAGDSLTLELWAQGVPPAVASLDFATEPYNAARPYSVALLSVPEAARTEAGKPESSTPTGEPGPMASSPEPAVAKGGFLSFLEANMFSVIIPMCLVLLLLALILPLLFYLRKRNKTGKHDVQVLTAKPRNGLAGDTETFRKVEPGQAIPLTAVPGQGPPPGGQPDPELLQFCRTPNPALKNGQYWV

B1: h763.74(#5)CD28 CAR (protein, not shown: large carriers)
chain: MEIVMTQSPSTLSASVGDRVIITCRASQTIYKNLHWYQQKPGKSPKLLIKYGSDSISGVPSRFSGSGSGTEYTLTISSLQPDDFATYYCLQGYSTPWTFGQGTKLTVLGGGGGSGGGGSGGGGSGGGGSQVQLVESGGGLVQPGGSLRLSCTASGYTFTDYSMHWVRKAPGKGLEWVGWINTATGEPTYADDFKGRFTISLDTSKNTVYLQMNSLRAEDTAVYFCASYYDYWGQGTLVTVSS
For the molecule B1, the residual tumor cells after coculture of CAR-T cells with CSPG4+ WM115 melanoma cells was 10%.

B2: 763.74(A)4-1BB CAR (protein, not shown: small tags and cut ends)
chain: MQVKLKESGPELKKPGETVKISCKASGYTFTDYSMHWVKKTPGKGLKWLGWINTATGEPTYADDFKGRFAISLETSARTVYLQINNLRNEDTATYFCFSYYDYWGQGTTVTVSSGGGGSGGGGSGGGGDIKLSQSPSILSVTPGETVSLSCRASQTIYKNLHWYQQKSHRSPRLLIKYGSDSISGIPSRFTGSGSGTDYTLNINSVKPEDQGIYYCLQGYSTPWTFGGGTKLEIK
As to B2, the residual tumor cells after coculture of CAR-T cells with WM115 (CSPG4+) melanoma cells, E:T 1:5 came out at 43.6%.

B3: 763.74(A)CD28 CAR (protein, not shown: small tags and cut ends)
chain: MQVKLKESGPELKKPGETVKISCKASGYTFTDYSMHWVKKTPGKGLKWLGWINTATGEPTYADDFKGRFAISLETSARTVYLQINNLRNEDTATYFCFSYYDYWGQGTTVTVSSGGGGSGGGGSGGGGDIKLSQSPSILSVTPGETVSLSCRASQTIYKNLHWYQQKSHRSPRLLIKYGSDSISGIPSRFTGSGSGTDYTLNINSVKPEDQGIYYCLQGYSTPWTFGGGTKLEIK
B3 showed a residual tumor cells after coculture of CAR-T cells with WM115 (CSPG4+) melanoma cells, E:T 1:5 of 2.2%.

B4: h763.74(#2)CD28 CAR (protein, not shown: large carriers)
chain: MDIKLTQSPSILSASVGDRVIITCRASQTIYKNLHWYQQKPHRSPRLLIKYGSDSISGIPSRFSGSGSGTEYTLTISSLQPDDFAIYYCLQGYSTPWTFGGGTKLTVLGGGGGSGGGGSGGGGSGGGGSQVQLVESGGGLVQPGGSLRLSCTASGYTFTDYSMHWVRKTPGKGLKWVGWINTATGEPTYADDFKGRFTISLDTSKNTVYLQMNSLRAEDTATYFCFSYYDYWGQGTTVTVSS
For the molecule B4, the residual tumor cells after coculture of CAR-T cells with CSPG4+ WM115 melanoma cells came out at 11%.
